Measurements from patent US20180162931A1.

What was measured:
[1] = molecular target: human α-CGRP 1-37 (WT) (human); assay: Biacore 37 C, Fab over N-biotinylated CGRP on SA chip
[2] = molecular target: human α-CGRP fragment 25-37 (human); assay: Biacore 25 C, Fab over N-biotinylated fragment on SA chip
[3] = molecular target: human α-CGRP 1-37 (WT) (human); assay: Biacore 25 C, Fab over N-biotinylated CGRP on SA chip
[4] = molecular target: rat α-CGRP (1-37) (rat); assay: Biacore 37 C, Fab over N-biotinylated rat α-CGRP on SA chip
Chain of rat α-CGRP (1-37) (rat) (peptide, as listed by the source): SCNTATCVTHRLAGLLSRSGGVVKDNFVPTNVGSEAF

Chain of human α-CGRP 1-37 (WT) (human) (peptide, as listed by the source): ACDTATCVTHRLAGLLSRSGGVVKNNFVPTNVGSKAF

Substance: anti-CGRP monoclonal antibody 4901 (Sigma, Product No. C7113), Fab fragment
- Kd [1]: 139 nM
- fold lower affinity than binding to full length human α-CGRP [2]: 6 fold
- Kd [3]: 61 nM
- Kd [4]: 3.4 nM
